Source: article PMC10300128

Biological target: human angiotensin-converting enzyme 2 (residues 19–615), mouse IgG2a Fc fusion (human) (UniProt Q9BYF1)
Assay: BLI

UniProt Q9BYF1, sequence (Q9BYF1 19-615): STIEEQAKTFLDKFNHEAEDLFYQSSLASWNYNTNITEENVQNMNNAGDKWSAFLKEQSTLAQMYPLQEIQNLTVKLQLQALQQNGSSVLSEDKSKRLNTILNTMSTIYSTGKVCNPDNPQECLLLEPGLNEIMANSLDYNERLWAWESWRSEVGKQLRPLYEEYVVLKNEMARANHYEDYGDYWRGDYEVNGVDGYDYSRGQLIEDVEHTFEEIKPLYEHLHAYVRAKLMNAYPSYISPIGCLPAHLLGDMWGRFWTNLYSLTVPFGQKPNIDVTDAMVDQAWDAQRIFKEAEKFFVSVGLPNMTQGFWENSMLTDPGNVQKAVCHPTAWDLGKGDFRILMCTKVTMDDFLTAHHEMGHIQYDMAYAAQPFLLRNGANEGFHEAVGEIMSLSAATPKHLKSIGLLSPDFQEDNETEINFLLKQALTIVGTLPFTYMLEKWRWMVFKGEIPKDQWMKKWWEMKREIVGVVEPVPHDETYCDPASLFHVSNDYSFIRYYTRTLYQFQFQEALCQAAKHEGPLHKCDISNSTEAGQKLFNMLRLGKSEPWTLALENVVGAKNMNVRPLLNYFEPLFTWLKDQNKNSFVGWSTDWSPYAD

Substance: RhGB07 spike trimer (natural protein)
- Kd: 253 nM
